Paper PMC9388126 (Proceedings of the National Academy of Sciences of the …, 2022)

How the values were obtained:
[1] = target: clawed frog GNPTG (gamma subunit of GNPT) (clawed frog (Xenopus laevis)); test: crystal structure
[2] = target: the molecule itself; test: crystal structure

stoichiometry N [1] | Molecule | stoichiometry N [2]
2 | clawed frog GNPTG (gamma subunit of GNPT) (natural protein) | 
 | zebrafish GNPTAB minimal construct (catalytic and EF-hand domains) (domain or fragment, N-linked glycans (up to five visible on each chain)) EVVVEWSRDQYHVLFDSYRDNVAGKSFQTRLCLPMPIDVVYTWVNGTDPKLIKEVTELKRSKRDPLIPECQGKQTPEKDKCYRDDNTASRFEDNEELRYSLRSIEKHAPWVRHIFIVTNGQIPSWLNLDNPRVSVVTHQDIFQNQTHLPTFSSPAIETHIHRIPGLSQKFIYLNDDVMFGKDVWPDDFYSHSKGQKVYLTWPVPNDTFADSLRYVNRLLNAQFGFTSRKVPAHMPHMIDRLIMQELQDTFPQEFDKTSSHRVRHSEDMQFAFSYFYFLMSAVQQLNISEVFDEIDTDHSGVLSDREIRTLATRIHELPLSLQDLTSLEQMLINCSKSLPSNLTHLHAVSPTQEAYYDPSMPPVTKGLVIHCKPITERIHKAFKDQNKYKFEIMGEEEIAFKMIRTNVSHVVGQLDDIRKNPRKFICLNDNIDHIHKDAGTVKAVLRDFYESMFPLPSQFELPREYRNRFLHMTELQEWRIYRDKL | 2
